In one assay the target is T1, human CDH6 on cells (human, UniProt P55285 54-790).
T1 sequence: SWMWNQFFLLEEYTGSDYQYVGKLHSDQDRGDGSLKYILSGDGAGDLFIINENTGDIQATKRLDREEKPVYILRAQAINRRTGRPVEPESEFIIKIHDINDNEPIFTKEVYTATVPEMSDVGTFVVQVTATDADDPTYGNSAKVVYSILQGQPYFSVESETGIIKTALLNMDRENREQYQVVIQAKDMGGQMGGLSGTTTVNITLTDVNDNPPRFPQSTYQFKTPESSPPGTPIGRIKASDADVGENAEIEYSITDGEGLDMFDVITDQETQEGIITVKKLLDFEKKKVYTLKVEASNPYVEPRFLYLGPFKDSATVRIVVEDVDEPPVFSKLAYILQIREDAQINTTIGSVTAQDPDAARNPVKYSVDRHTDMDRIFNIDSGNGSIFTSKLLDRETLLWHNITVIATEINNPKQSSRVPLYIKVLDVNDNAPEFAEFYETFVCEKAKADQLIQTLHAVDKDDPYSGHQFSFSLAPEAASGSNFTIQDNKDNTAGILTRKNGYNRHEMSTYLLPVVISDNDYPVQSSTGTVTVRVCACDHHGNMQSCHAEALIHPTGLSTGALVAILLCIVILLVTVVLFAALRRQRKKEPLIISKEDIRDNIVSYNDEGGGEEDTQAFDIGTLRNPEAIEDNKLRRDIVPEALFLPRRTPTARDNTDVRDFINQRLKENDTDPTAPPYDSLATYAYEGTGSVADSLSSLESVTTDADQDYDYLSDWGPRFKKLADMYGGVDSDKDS
Kind of assay: FACS on OVCAR3 cells.

The next assay deals with T2, hCDH6aa54-615 APPavi (human, UniProt P55285 54-615).
T2 sequence: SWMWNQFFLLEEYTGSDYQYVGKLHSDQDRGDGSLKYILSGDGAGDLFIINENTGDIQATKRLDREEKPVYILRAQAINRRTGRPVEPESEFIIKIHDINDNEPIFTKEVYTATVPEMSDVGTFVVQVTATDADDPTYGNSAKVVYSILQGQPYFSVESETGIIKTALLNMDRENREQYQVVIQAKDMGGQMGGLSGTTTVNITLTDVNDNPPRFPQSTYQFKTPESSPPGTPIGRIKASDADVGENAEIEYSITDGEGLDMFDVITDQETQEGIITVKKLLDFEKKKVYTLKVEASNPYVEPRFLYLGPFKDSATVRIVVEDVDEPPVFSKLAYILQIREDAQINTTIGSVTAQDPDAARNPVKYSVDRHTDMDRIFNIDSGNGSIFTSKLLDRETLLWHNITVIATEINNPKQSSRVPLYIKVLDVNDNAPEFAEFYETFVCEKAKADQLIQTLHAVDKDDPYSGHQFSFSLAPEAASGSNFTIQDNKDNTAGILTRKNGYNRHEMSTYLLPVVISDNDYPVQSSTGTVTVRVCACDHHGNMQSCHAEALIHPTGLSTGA
Kind of assay: SPR binning.

B1: NOV0712 (antibody, human IgG1, kappa, V domains shown)
VH: QVQLLESGGGLVQPGGSLRLSCAASGFTFSSHGMHWVRQAPGKGLEWVSVISGSGSNTGYADSVKGRFTISRDNSKNTLYLQMNSLRAEDTAVYYCARQWGSYAFDSWGQGTLVTVSS
VL: DIQMTQSPSSLSASVGDRVTITCRASQSISSYLNWYQQKPGKAPKLLIYAVSTLQSGVPSRFSGSGSGTDFTLTISSLQPEDFATYYCQQSGTFPPTTFGQGTKVEIKR
The EC50 (read off the curve) is the concentration at which the effect is half-maximal. Read a high EC50 (read off the curve) as lower potency in that assay. In the case of B1, the 50% effective concentration (EC50 (read off the curve)) with human CDH6 on cells was approximately 0.4 nM. In the assay with hCDH6aa54-615 APPavi, the “response of secondary antibody on primary antibody-CDH6 complex” value is -1.82.

(Values after US20170224836A1 (Novartis, published 2017).)
